Drawing on paper PMC5676751, this text covers KD1 (first of two types of interaction) and KD2 (second of two types of interaction) for two substances.

The target of the assay is HER2 on HER2-expressing SKOV3 and BT474 cells (human (endogenous in SKOV3 and BT474)) (UniProt P04626). In words: radioligand binding; LigandTracer Yellow, living SKOV3 cells (10^6) on a segment of a dish; radiolabeled ADAPT at 0.333 and 1 nM; association and dissociation recorded, duplicates; InteractionMap software, two types of interaction.

The substance “^99mTc-DEAVDANS-ADAPT6-GSSC (designed binder)” yielded a KD1 (first of two types of interaction) of 174 pM.

“^111In-DEAVDANS-ADAPT6-GSSC-DOTA (designed binder)” gave a KD1 (first of two types of interaction) of 32.3 pM and a KD2 (second of two types of interaction) of 1.31 nM.
